Source: US20200200749A1 (published 2020)

Experiments:
SUDV GP (recombinant) = target: T1, SUDV GP (recombinant) (SUDV (Sudan ebolavirus), UniProt Q66814 33-650); experiment: ELISA
T1 chain: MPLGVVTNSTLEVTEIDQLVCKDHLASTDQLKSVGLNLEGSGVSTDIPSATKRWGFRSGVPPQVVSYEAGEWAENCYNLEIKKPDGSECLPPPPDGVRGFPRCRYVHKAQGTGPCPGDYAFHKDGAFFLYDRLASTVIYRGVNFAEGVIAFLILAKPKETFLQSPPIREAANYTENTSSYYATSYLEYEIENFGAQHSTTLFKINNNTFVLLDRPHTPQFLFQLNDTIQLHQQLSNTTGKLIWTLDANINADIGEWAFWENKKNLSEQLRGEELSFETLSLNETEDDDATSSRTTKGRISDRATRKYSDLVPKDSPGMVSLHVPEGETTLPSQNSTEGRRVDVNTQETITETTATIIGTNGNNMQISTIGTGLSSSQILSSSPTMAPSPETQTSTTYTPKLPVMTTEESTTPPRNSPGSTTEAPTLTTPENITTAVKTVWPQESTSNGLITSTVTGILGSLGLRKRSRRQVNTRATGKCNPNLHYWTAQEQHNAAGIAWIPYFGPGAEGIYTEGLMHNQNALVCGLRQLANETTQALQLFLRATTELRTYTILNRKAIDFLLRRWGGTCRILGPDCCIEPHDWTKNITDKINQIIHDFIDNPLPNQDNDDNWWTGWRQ

[1] = target: T2, EBOV GP (recombinant, full-length extracellular domain) (EBOV (Ebola Zaire), UniProt Q05320 33-650); experiment: ELISA
T2 chain: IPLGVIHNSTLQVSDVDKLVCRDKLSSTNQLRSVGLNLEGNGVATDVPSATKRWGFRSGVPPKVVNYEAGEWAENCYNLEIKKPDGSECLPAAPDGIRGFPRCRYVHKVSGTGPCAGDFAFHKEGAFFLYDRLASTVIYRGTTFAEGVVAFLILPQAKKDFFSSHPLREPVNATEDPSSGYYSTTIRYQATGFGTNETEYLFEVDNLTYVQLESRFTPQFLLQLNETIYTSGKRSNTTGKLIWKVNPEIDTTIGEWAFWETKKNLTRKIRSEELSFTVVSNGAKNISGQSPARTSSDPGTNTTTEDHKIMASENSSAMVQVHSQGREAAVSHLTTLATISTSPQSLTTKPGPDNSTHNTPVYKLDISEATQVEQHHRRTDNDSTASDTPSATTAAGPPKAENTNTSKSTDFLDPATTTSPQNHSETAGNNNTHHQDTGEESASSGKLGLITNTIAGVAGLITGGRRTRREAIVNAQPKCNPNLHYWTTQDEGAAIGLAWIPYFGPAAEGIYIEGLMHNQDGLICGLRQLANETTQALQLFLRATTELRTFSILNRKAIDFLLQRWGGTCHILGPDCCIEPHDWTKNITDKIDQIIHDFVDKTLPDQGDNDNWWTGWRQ

B1: BDBV324 (antibody, V domains shown)
VH: QVQLVQSGAEVKKPGASVKVSCKTSGYTFTSFEIHWVRQGSGQGLEWMGRMNPKSGDTVSAQKFQGRVTLTRDTSINAAYMELGSLSSEDTAVYYCARGPHVGEVVPGLMAGTYYFPLDVWGQGTLVTVSS
VL: DIQMTQSPSTLSASIGDRVTITCRASQSISRWLAWYQQKPGKAPKLLIYKVSDLQSGVPSRFSGSGYGTEFTLTIGSLQPDDLATYYCQQYDTYPWTFGQGTKLEIK
B1 showed an EC50 (SUDV GP (recombinant)) of 0.09 µg/mL and an EC50 [1] of 0.131 µg/mL.

B2: BDBV270 (antibody, V domains shown)
VH: QVQLQESGPGLVKPSQTLSLTCTVSGASISRGLYYWSWIRQPAGKGLEWIGRIYTSGSINYNPSLKSRVTISVDTSKNQFSLRLSSVIATDTAVYYCVRDAPWGDFLTGYFGFYGMDVWGQGTLVTVSS
VL: DIVMTQSPSSLSASVGDRVTITCRASQSINTYLNWYQQKPGKAPKFLIYAASSLHSGVPSRFSGSGSGTDFTLTINSLQPDDFATYYCQQSFTTPYTFGQGTKLEIK
In the case of B2, the EC50 (SUDV GP (recombinant)) is reported as 0.159 µg/mL and the EC50 [1] is reported as 0.173 µg/mL.

B3: BDBV223 (antibody, V domains shown)
VH: QVQLQQWGAGLLKPSETLSLTCAVYGGSFTTTYWNWIRQPPGKGLEWIGEVNYSGNANYNPSLKGRVAISVDTSKNQFSLRLNSVTAADTAIYYCTSRIRSHIAYSWKGDVWGKGTTVTVSS
VL: EIVMTQSPGTLSLSPGERATLSCRASQSVPRNYIGWFQQKPGQAPRLLIYGASSRAAGFPDRFSGSGSGTDFTLTITRLEPEDFAMYYCHQYDRLPYTFGQGTKLEIK
B3 was tested, and the EC50 (SUDV GP (recombinant)) was 0.106 µg/mL and the EC50 [1] was 0.024 µg/mL.

B4: BDBV289 (antibody, V domains shown)
VH: QVQLVQSGAEVKKPGSSVKVSCKASGATFGSDTVTWVRQAPGQGLEWMGGIIPFFGEANYAQRFQGRVTITADKSTNTAYMELSSLRSEDTAVYFCARQINEMATFGEIHYYTYMDVWGQGTLVTVSS
VL: GSELTQDPAVSVALGQTVRITCQGDSLRNYYASWYQQKPRQAPVLVFYGKNNRPSGIPDRFSGSSSGNTASLTISGAQAEDEADYYCNSRDSSSNHLVFGGGTKLTVLS
With B4 the EC50 (SUDV GP (recombinant)) was 0.103 µg/mL and the EC50 [1] was 0.029 µg/mL.
